Results as given in IntAct's records for PubMed 22981988.

B1: Arfaptin-1 (Homo sapiens), P53367 (parent)
chain: MAQESPKNSAAEIPVTSNGEVDDSREHSFNRDLKHSLPSGLGLSETQITSHGFDNTKEGVIEAGAFQGSPAPPLPSVMSPSRVAASRLAQQGSDLIVPAGGQRTQTKSGPVILADEIKNPAMEKLELVRKWSLNTYKCTRQIISEKLGRGSRTVDLELEAQIDILRDNKKKYENILKLAQTLSTQLFQMVHTQRQLGDAFADLSLKSLELHEEFGYNADTQKLLAKNGETLLGAINFFIASVNTLVNKTIEDTLMTVKQYESARIEYDAYRTDLEELNLGPRDANTLPKIEQSQHLFQAHKEKYDKMRNDVSVKLKFLEENKVKVLHNQLVLFHNAIAAYFAGNQKQLEQTLKQFHIKLKTPGVDAPSWLEEQ
partner: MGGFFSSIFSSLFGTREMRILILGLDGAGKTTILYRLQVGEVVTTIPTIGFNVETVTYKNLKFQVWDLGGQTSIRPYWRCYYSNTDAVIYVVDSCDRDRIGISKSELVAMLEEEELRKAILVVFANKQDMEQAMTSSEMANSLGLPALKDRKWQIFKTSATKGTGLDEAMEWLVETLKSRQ
B2: Arfaptin-1 (Homo sapiens), P53367 (parent)
chain: B1 chain

Variants of: B1
Conditions: with arl1_human ARL1, P40616

Variant | effect of a mutation on the interaction
MAQESPKNSAAEIPVTSNGEVDDSREHSFNRDLKHSLPSGLGLSETQITSHGFDNTKEGVIEAGAFQGSPAPPLPSVMSPSRVAASRLAQQGSDLIVPAGGQRTQTKSGPVILADEIKNPAMEKLELVRKWDLNTYKCTRQIISEKLGRGSRTVDLELEAQIDILRDNKKKYENILKLAQTLSTQLFQMVHTQRQLGDAFADLSLKSLELHEEFGYNADTQKLLAKNGETLLGAINFFIASVNTLVNKTIEDTLMTVKQYESARIEYDAYRTDLEELNLGPRDANTLPKIEQSQHLFQAHKEKYDKMRNDVSVKLKFLEENKVKVLHNQLVLFHNAIAAYFAGNQKQLEQTLKQFHIKLKTPGVDAPSWLEEQ [S132D] | disrupting interaction strength
MAQESPKNSAAEIPVTSNGEVDDSREHSFNRDLKHSLPSGLGLSETQITSHGFDNTKEGVIEAGAFQGSPAPPLPSVMSPSRVAASRLAQQGSDLIVPAGGQRTQTKSGPVILADEIKNPAMEKLELVRKWALNTYKCTRQIISEKLGRGSRTVDLELEAQIDILRDNKKKYENILKLAQTLSTQLFQMVHTQRQLGDAFADLSLKSLELHEEFGYNADTQKLLAKNGETLLGAINFFIASVNTLVNKTIEDTLMTVKQYESARIEYDAYRTDLEELNLGPRDANTLPKIEQSQHLFQAHKEKYDKMRNDVSVKLKFLEENKVKVLHNQLVLFHNAIAAYFAGNQKQLEQTLKQFHIKLKTPGVDAPSWLEEQ [S132A] | with no effect

Variants of: B2
Conditions: with arf1_human ARF1, P84077
arf1_human ARF1, P84077, sequence (P84077 whole entry): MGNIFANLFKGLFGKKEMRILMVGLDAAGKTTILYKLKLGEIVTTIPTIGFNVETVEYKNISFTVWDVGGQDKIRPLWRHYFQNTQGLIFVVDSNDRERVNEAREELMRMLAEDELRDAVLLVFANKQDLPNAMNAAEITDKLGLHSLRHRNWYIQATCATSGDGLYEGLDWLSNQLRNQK

Variant | effect of a mutation on the interaction
MAQESPKNSAAEIPVTSNGEVDDSREHSFNRDLKHSLPSGLGLSETQITSHGFDNTKEGVIEAGAFQGSPAPPLPSVMSPSRVAASRLAQQGSDLIVPAGGQRTQTKSGPVILADEIKNPAMEKLELVRKWDLNTYKCTRQIISEKLGRGSRTVDLELEAQIDILRDNKKKYENILKLAQTLSTQLFQMVHTQRQLGDAFADLSLKSLELHEEFGYNADTQKLLAKNGETLLGAINFFIASVNTLVNKTIEDTLMTVKQYESARIEYDAYRTDLEELNLGPRDANTLPKIEQSQHLFQAHKEKYDKMRNDVSVKLKFLEENKVKVLHNQLVLFHNAIAAYFAGNQKQLEQTLKQFHIKLKTPGVDAPSWLEEQ [S132D] | disrupting interaction strength

Variants of: B2
Conditions: with arf3_human ARF3, P61204
arf3_human ARF3, P61204, sequence (P61204 whole entry): as the sequence (P84077 whole entry) above, with A6G, F9L, G11S, F13I, S174A, R178K, Q180K counted along it

Variant | effect of a mutation on the interaction
MAQESPKNSAAEIPVTSNGEVDDSREHSFNRDLKHSLPSGLGLSETQITSHGFDNTKEGVIEAGAFQGSPAPPLPSVMSPSRVAASRLAQQGSDLIVPAGGQRTQTKSGPVILADEIKNPAMEKLELVRKWDLNTYKCTRQIISEKLGRGSRTVDLELEAQIDILRDNKKKYENILKLAQTLSTQLFQMVHTQRQLGDAFADLSLKSLELHEEFGYNADTQKLLAKNGETLLGAINFFIASVNTLVNKTIEDTLMTVKQYESARIEYDAYRTDLEELNLGPRDANTLPKIEQSQHLFQAHKEKYDKMRNDVSVKLKFLEENKVKVLHNQLVLFHNAIAAYFAGNQKQLEQTLKQFHIKLKTPGVDAPSWLEEQ [S132D] | disrupting interaction strength
MAQESPKNSAAEIPVTSNGEVDDSREHSFNRDLKHSLPSGLGLSETQITSHGFDNTKEGVIEAGAFQGSPAPPLPSVMSPSRVAASRLAQQGSDLIVPAGGQRTQTKSGPVILADEIKNPAMEKLELVRKWALNTYKCTRQIISEKLGRGSRTVDLELEAQIDILRDNKKKYENILKLAQTLSTQLFQMVHTQRQLGDAFADLSLKSLELHEEFGYNADTQKLLAKNGETLLGAINFFIASVNTLVNKTIEDTLMTVKQYESARIEYDAYRTDLEELNLGPRDANTLPKIEQSQHLFQAHKEKYDKMRNDVSVKLKFLEENKVKVLHNQLVLFHNAIAAYFAGNQKQLEQTLKQFHIKLKTPGVDAPSWLEEQ [S132A] | with no effect

Variants of: B2
Conditions: with arf1_human ARF1, P84077
Remark: another data set of the same source

Variant | effect of a mutation on the interaction
MAQESPKNSAAEIPVTSNGEVDDSREHSFNRDLKHSLPSGLGLSETQITSHGFDNTKEGVIEAGAFQGSPAPPLPSVMSPSRVAASRLAQQGSDLIVPAGGQRTQTKSGPVILADEIKNPAMEKLELVRKWALNTYKCTRQIISEKLGRGSRTVDLELEAQIDILRDNKKKYENILKLAQTLSTQLFQMVHTQRQLGDAFADLSLKSLELHEEFGYNADTQKLLAKNGETLLGAINFFIASVNTLVNKTIEDTLMTVKQYESARIEYDAYRTDLEELNLGPRDANTLPKIEQSQHLFQAHKEKYDKMRNDVSVKLKFLEENKVKVLHNQLVLFHNAIAAYFAGNQKQLEQTLKQFHIKLKTPGVDAPSWLEEQ [S132A] | with no effect
